In patent US20260226168A1 (published 2026):
Changes are numbered by the printed parent chain. Values belong to the binder of their own block, whether it stands above or below them.

Target: T1, human GPRC5D protein (UniProt Q9NZD1 1-345)
T1 chain: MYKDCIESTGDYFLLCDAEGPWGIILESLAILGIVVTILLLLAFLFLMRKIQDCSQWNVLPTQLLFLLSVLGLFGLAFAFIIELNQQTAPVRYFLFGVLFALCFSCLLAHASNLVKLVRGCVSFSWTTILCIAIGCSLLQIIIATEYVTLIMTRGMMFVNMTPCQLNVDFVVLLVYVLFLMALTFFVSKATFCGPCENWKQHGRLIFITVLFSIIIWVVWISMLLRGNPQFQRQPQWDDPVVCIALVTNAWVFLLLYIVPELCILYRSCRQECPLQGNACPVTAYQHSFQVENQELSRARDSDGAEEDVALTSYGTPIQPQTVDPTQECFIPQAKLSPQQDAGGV
Assay: FACS, cells with high expression of hGPRC5D

- EC50: 0.66 nM
B2: Chi-131 (antibody, V domains shown)
VH: EVQLQQSGPELVKPGASVKMSCKASGYTFTNYVMHWVKQKPGQGLEWIGYFNPYNDGTNYNEKFKGKATLTSDKSSNTAYMELSSLTSEDSAVYYCARGGVRRYFDVWGAGTTVTVSS
VL: DIQMTQSPSSLSASLGERVSLTCRASQDIGSNLNWLQLGPDGTIKRLIYATFSLDSGVPKRFSGSRSGSDYSLTISSLESEDFVDYYCQQYANFPPTFGGGTKLEIKR

- EC50: 0.66 nM
B3: Chi-169 (antibody, V domains shown)
VH: EVKLVESGGGLVKPGASLKLSCAASGFTFSNYGMSWVRQTSDKRLEWVASISSGGGRIYYPDNVKGRFTISRENAKNTLYLQMSSLKSEDTALYYCTRHAMDNWGQGTSVIVSS
VL: QIVLTQSPAIMSASPGEKVTMTCSASSSVSNMYWYQQKSGTSPKRWIYDTSKLASGVPARFSGSGSGTSYSLTISSMEAEDASTYYCQQWSSNPLTFGAGTTLELKR

More lines, now with the values behind:

B1: Chi-128 (antibody, V domains shown)
VH: DVQLVESGGGLVQPGGSRKVSCAASGFTFSSFGMHWVRQAPEKGLEWVAYISRGSSTIYYADTVKGRFTISRDNPKNTLFLQMTSLRSEDTAMYYCARSGYGSSSYYFDYWGQGTTLTVSS
VL: ENVLTQSPAIMSASPREKVTMTCRASSSIRSSYLHWYQQKSGASPKLWIYSTSNLASGVPARFSGSGSGTSYSLTISSVEAEDAATYYCQQFSGYPLTFGGGTKLEIKR
- EC50: 0.76 nM

B4: Chi-105 (antibody, V domains shown)
VH: EVQLQQSGPELVKPGASVKMSCKASGYTFTDYYMNWVKQSHGKSLEWIGYIYPNNGGTGYNQRFKGKATLTADKSSSTAYMELRSLTSEDSAVYYCARWGGTRLGYYAMDYWGQGTSVTVSS
VL: DIVMTQSQKFMSTSVGDRVSVTCKASQNVGTNVVWYQQKPGQSPKLLIYWASTRHTGVPDRFTGSGSGTDFTLTISNVQSEDLADYFCQQYSRYPYTFGGGTKLEIKR
- EC50: 1.44 nM

B5: Chi-89 (antibody, V domains shown)
VH: EVQLVESGGDLVKPGGSLKLSCAASGFTFSSYGMSWVRQTPDKRLEWVATISSGGSYTYYPDSVKGRFTFSRDNAKNTLYLQMSSLKSEDTAMYYCVRQALRYHMDSWGQGTSVTVSS
VL: B4 VL with V34A, L46A, W50S, T53Y, H55Y, T56S, Y86F, S92Y, R93S, Y96W
- EC50: 0.7 nM
